# Publication PMC4414194
# What was measured:
# HDAC4 = HDAC4 (UniProt P56524); assay: anti-GFP co-IP, anti-Flag blot; settings: reference: GATA1 wild type; sites S161,S187
# HDAC3 = HDAC3 (UniProt O15379); assay: anti-GFP co-IP, anti-Flag blot; settings: reference: GATA1 wild type; sites S161,S187
substance,measurement,setting,value
GATA1 (from UniProt P15976) GATA1 S161A S187A,binding against the reference,HDAC4,weaker
same,binding against the reference,HDAC3,weaker
